We go through 7 molecules from patent US20170306033A1 (Amgen, published 2017).

Experiment [1] addresses T1, human PAC1 receptor (human, UniProt P41586 21-468).
T1 sequence: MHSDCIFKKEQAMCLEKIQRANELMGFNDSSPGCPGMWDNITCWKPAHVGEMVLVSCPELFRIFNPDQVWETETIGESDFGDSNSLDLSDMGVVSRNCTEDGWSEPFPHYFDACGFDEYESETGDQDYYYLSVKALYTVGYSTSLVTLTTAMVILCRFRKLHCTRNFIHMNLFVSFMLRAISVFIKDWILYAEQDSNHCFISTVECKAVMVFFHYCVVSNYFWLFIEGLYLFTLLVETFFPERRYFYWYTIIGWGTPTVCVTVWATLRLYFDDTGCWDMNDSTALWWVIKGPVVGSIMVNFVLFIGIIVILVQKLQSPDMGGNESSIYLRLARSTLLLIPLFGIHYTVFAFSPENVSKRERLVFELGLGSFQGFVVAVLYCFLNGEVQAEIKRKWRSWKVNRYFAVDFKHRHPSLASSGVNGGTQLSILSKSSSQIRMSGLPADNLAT
Kind of experiment: cell-based or functional assay.

The target of experiment [2] is human CGRP receptor (human, UniProt Q16602 23-461; O60894 27-148). Put plainly: cell-based or functional assay.
Chain of human CGRP receptor (Q16602 23-461 limits assumed, chain 1 of 2): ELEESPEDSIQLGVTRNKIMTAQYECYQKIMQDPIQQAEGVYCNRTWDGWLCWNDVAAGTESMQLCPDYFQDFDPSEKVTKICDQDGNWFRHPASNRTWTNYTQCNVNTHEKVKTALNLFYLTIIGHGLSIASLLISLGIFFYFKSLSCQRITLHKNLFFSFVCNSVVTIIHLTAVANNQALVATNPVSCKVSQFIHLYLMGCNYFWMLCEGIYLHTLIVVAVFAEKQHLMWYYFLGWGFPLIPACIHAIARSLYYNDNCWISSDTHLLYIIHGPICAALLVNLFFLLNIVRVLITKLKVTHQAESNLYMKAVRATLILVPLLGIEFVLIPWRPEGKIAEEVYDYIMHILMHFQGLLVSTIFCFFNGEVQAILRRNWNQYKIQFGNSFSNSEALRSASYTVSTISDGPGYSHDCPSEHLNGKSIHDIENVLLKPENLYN
Chain of human CGRP receptor (O60894 27-148 limits assumed, chain 2 of 2): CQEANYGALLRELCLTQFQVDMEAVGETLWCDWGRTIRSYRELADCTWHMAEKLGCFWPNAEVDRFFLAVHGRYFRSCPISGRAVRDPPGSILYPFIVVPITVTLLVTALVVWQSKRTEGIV

B1: iPS:326417 (bispecific antibody, human IgG1, kappa, N297G)
light 1: not shown
heavy 1: not shown
light 2: EIVLTQSPGTLSLSPGERATLSCRASQSVSSGYLTWYQQKPGQAPRLLIYGASSRATGIPDRFSGSGSGTDFTLTISRLEPEDFAVYYCQQYGNSLSRFGQGTKLEIKRTVAAPSVFIFPPSDEQLKSGTASVVCLLNNFYPREAKVQWKVDNALQSGNSQESVTEQDSKDSTYSLKSTLTLSKADYEKHKVYACEVTHQGLSSPVTKSFNRGEC
heavy 2: not shown
With B1, in experiment [1], the “% inhibition of human PAC1” value is 48%. Also, the “% inhibition of human CGRPR” value in experiment [2] turned out to be 66%.

B2: iPS:326628 (bispecific antibody, human IgG2, kappa, lambda)
light 1: DIQLTQSPSFLSASVGDRVTITCRASQSIGRSLHWYQQKPGKAPKLLIKYASQSLSGVPSRFSGSGSGTEFTLTISSLQPEDFATYYCHQSSRLPFTFGPGTKVDIKRTVAAPSVFIFPPSDEQLKSGTASVVCLLNNFYPREAKVQWKVDNALQSGNSQESVTEQDSKDSTYSLESTLTLSKADYEKHKVYACEVTHQGLSSPVTKSFNRGEC
heavy 1: QVQLVESGAEVVKPGASVKVSCKASGFTFSRFAMHWVRQAPGQGLEWMGVISYDGGNKYYAESVKGRVTMTRDTSTSTLYMELSSLRSEDTAVYYCARGYDVLTGYPDYWGQGTLVTVSSASTKGPSVFPLAPCSRSTSESTAALGCLVKDYFPEPVTVSWNSGALTSGVHTFPAVLQSSGLYSLKSVVTVPSSNFGTQTYTCNVDHKPSNTKVDKTVERKCCVECPPCPAPPVAGPSVFLFPPKPKDTLMISRTPEVTCVVVDVSHEDPEVQFNWYVDGVEVHNAKTKPREEQFNSTFRVVSVLTVVHQDWLNGKEYKCKVSNKGLPAPIEKTISKTKGQPREPQVYTLPPSREEMTKNQVSLTCLVDGFYPSDIAVEWESNGQPENNYDTTPPMLDSDGSFFLYSDLTVDKSRWQQGNVFSCSVMHEALHNHYTQKSLSLSPGK
light 2: not shown
heavy 2: not shown
On to B2, for which the “% inhibition of human PAC1” value in experiment [1] came out at 61%. For the same molecule, the “% inhibition of human CGRPR” value in experiment [2] was found to be 84%.

B3: iPS:327282 (bispecific antibody, human IgG1, kappa, lambda, N297G)
light 1: DIQLTQSPSFLSASVGDRVTITCRASQSIGRSLHWYQQKPGKAPKLLIKYASQSLSGVPSRFSGSGSGTEFTLTISSLQPEDFATYYCHQSSRLPFTFGPGTKVDIKRTVAAPSVFIFPPSDEQLKSGTASVVCLLNNFYPREAKVQWKVDNALQSGNSQESVTEQDSKDSTYSLESTLTLSKADYEKHKVYACEVTHQGLSSPVTKSFNRGEC
heavy 1: not shown
light 2: QSVLTQPPSVSAAPGQKVTISCSGSSSNIGNNYVSWYQQLPGTAPKLLIYDNNKRPSGIPDRFSGSKSGTSTTLGITGLQTGDEADYYCGTWDSRLSAVVFGGGTKLTVLGQPKANPTVTLFPPSSEELQANKATLVCLISDFYPGAVTVAWKADGSPVKAGVETTKPSKQSNNKYAAKSYLSLTPEQWKSHRSYSCQVTHEGSTVEKTVAPTECS
heavy 2: QVQLVESGGGVVQPGRSLRLSCAASGFTFSSFGMHWVRQAPGKGLEWVAVISFDGSIKYSVDSVKGRFTISRDNSKNTLFLQMNSLRAEDTAVYYCARDRLNYYDSSGYYHYKYYGMAVWGQGTTVTVSSASTKGPSVFPLAPSSKSTSGGTAALGCLVKDYFPEPVTVSWNSGALTSGVHTFPAVLQSSGLYSLESVVTVPSSSLGTQTYICNVNHKPSNTKVDKKVEPKSCDKTHTCPPCPAPELLGGPSVFLFPPKPKDTLMISRTPEVTCVVVDVSHEDPEVKFNWYVDGVEVHNAKTKPCEEQYGSTYRCVSVLTVLHQDWLNGKEYKCKVSNKALPAPIEKTISKAKGQPREPQVYTLPPSRKEMTKNQVSLTCLVKGFYPSDIAVEWESNGQPENNYKTTPPVLKSDGSFFLYSKLTVDKSRWQQGNVFSCSVMHEALHNHYTQKSLSLSPGK
For the molecule B3, the “% inhibition of human PAC1” value in experiment [1] is 58%. The “% inhibition of human CGRPR” value in experiment [2] came to 87%.

B4: iPS:327278 (bispecific antibody, human IgG1, kappa, lambda, N297G)
light 1: DIQLTQSPSFLSASVGDRVTITCRASQSIGRSLHWYQQKPGKAPKLLIKYASQSLSGVPSRFSGSGSGTEFTLTISSLQPEDFATYYCHQSSRLPFTFGPGTKVDIKRTVAAPSVFIFPPSDEQLKSGTASVVCLLNNFYPREAKVQWKVDNALQSGNSQESVTEQDSKDSTYSLESTLTLSKADYEKHKVYACEVTHQGLSSPVTKSFNRGEC
heavy 1: not shown
light 2: not shown
heavy 2: not shown
For B4, in experiment [1], the “% inhibition of human PAC1” value was 47%. Moreover, the “% inhibition of human CGRPR” value in experiment [2] was found to be 85%.

B5: iPS:327283 (bispecific antibody, human IgG1, kappa, lambda, N297G)
light 1: EIVLTQSPATLSLSPGERATLSCRASQSVGRSLHWYQQKPGQAPRLLIKYASQSLSGIPARFSGSGSGTDFTLTISSLEPEDFAVYYCHQSSRLPFTFGPGTKVDIKRTVAAPSVFIFPPSDEQLKSGTASVVCLLNNFYPREAKVQWKVDNALQSGNSQESVTEQDSKDSTYSLESTLTLSKADYEKHKVYACEVTHQGLSSPVTKSFNRGEC
heavy 1: not shown
light 2: QSVLTQPPSVSAAPGQKVTISCSGSSSNIGNNYVSWYQQLPGTAPKLLIYDNNKRPSGIPDRFSGSKSGTSTTLGITGLQTGDEADYYCGTWDSRLSAVVFGGGTKLTVLGQPKANPTVTLFPPSSEELQANKATLVCLISDFYPGAVTVAWKADGSPVKAGVETTKPSKQSNNKYAAKSYLSLTPEQWKSHRSYSCQVTHEGSTVEKTVAPTECS
heavy 2: QVQLVESGGGVVQPGRSLRLSCAASGFTFSSFGMHWVRQAPGKGLEWVAVISFDGSIKYSVDSVKGRFTISRDNSKNTLFLQMNSLRAEDTAVYYCARDRLNYYDSSGYYHYKYYGMAVWGQGTTVTVSSASTKGPSVFPLAPSSKSTSGGTAALGCLVKDYFPEPVTVSWNSGALTSGVHTFPAVLQSSGLYSLESVVTVPSSSLGTQTYICNVNHKPSNTKVDKKVEPKSCDKTHTCPPCPAPELLGGPSVFLFPPKPKDTLMISRTPEVTCVVVDVSHEDPEVKFNWYVDGVEVHNAKTKPCEEQYGSTYRCVSVLTVLHQDWLNGKEYKCKVSNKALPAPIEKTISKAKGQPREPQVYTLPPSRKEMTKNQVSLTCLVKGFYPSDIAVEWESNGQPENNYKTTPPVLKSDGSFFLYSKLTVDKSRWQQGNVFSCSVMHEALHNHYTQKSLSLSPGK
Consider B5, for which the “% inhibition of human PAC1” value in experiment [1] stood at 99%. The “% inhibition of human CGRPR” value in experiment [2] was determined as 85%.

B6: iPS:327279 (bispecific antibody, human IgG1, kappa, lambda, N297G)
light 1: EIVLTQSPATLSLSPGERATLSCRASQSVGRSLHWYQQKPGQAPRLLIKYASQSLSGIPARFSGSGSGTDFTLTISSLEPEDFAVYYCHQSSRLPFTFGPGTKVDIKRTVAAPSVFIFPPSDEQLKSGTASVVCLLNNFYPREAKVQWKVDNALQSGNSQESVTEQDSKDSTYSLESTLTLSKADYEKHKVYACEVTHQGLSSPVTKSFNRGEC
heavy 1: not shown
light 2: not shown
heavy 2: not shown
B6: in experiment [1], the “% inhibition of human PAC1” value was found to be 95%. Moreover, the “% inhibition of human CGRPR” value in experiment [2] came out at 73%.

B7: iPS:327284 (bispecific antibody, human IgG1, kappa, lambda, N297G)
light 1: DIQMTQSPSSLSASVGDRITITCRASQSISRYLNWYQQKPGKAPKLLIYAASSLQSGIPSRFSGSGSGTDFTLTINSLQPEDFATYFCQQSYSPPFTFGEGTKVDIKRTVAAPSVFIFPPSDEQLKSGTASVVCLLNNFYPREAKVQWKVDNALQSGNSQESVTEQDSKDSTYSLESTLTLSKADYEKHKVYACEVTHQGLSSPVTKSFNRGEC
heavy 1: not shown
light 2: QSVLTQPPSVSAAPGQKVTISCSGSSSNIGNNYVSWYQQLPGTAPKLLIYDNNKRPSGIPDRFSGSKSGTSTTLGITGLQTGDEADYYCGTWDSRLSAVVFGKGTKLTVLGQPKANPTVTLFPPSSEELQANKATLVCLISDFYPGAVTVAWKADGSPVKAGVETTKPSKQSNNKYAAKSYLSLTPEQWKSHRSYSCQVTHEGSTVEKTVAPTECS
heavy 2: QVQLVESGGGVVQPGRSLRLSCAASGFTFSSFGMHWVRQAPGKELEWVAVISFDGSIKYSVDSVKGRFTISRDNSKNTLFLQMNSLRAEDTAVYYCARDRLNYYDSSGYYHYKYYGMAVWGQGTTVTVSSASTKGPSVFPLAPSSKSTSGGTAALGCLVKDYFPEPVTVSWNSGALTSGVHTFPAVLQSSGLYSLESVVTVPSSSLGTQTYICNVNHKPSNTKVDKKVEPKSCDKTHTCPPCPAPELLGGPSVFLFPPKPKDTLMISRTPEVTCVVVDVSHEDPEVKFNWYVDGVEVHNAKTKPCEEQYGSTYRCVSVLTVLHQDWLNGKEYKCKVSNKALPAPIEKTISKAKGQPREPQVYTLPPSRKEMTKNQVSLTCLVKGFYPSDIAVEWESNGQPENNYKTTPPVLKSDGSFFLYSKLTVDKSRWQQGNVFSCSVMHEALHNHYTQKSLSLSPGK
With B7, the “% inhibition of human PAC1” value in experiment [1] was determined as 25%. For the same molecule, the “% inhibition of human CGRPR” value in experiment [2] turned out to be 77%.
